Experimental data as given in patent US20090136936A1.

The substances below were run against PA-FITC (PA antigen of Bacillus anthracis) (Bacillus anthracis) (UniProt P13423).
Chain of PA-FITC (PA antigen of Bacillus anthracis) (Bacillus anthracis) (P13423 30-764 limits assumed): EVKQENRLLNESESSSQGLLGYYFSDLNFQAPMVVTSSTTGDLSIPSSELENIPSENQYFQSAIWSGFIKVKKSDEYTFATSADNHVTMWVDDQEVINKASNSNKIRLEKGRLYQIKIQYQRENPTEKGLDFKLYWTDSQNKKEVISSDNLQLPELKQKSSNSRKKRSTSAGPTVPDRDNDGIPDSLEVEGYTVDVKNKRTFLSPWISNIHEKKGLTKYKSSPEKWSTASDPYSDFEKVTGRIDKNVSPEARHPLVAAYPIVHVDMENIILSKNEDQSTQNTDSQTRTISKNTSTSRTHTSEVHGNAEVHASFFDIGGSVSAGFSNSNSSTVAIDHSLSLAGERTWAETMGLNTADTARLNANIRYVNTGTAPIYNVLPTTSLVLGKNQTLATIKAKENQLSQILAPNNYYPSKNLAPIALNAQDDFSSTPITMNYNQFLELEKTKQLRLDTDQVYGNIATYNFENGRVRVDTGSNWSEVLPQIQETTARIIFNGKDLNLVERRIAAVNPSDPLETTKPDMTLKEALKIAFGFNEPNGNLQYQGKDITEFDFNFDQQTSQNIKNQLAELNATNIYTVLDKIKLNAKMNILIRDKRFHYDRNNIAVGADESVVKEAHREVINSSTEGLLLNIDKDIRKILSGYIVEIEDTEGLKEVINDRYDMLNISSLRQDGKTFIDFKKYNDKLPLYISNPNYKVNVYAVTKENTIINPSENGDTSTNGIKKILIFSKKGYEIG

Row | Substance | Mn (mean fluorescence intensity)
1 | M18 scFv (PelB fused, anti-PA) | 10.3
2 | 26-10 scFv (anti-digoxin) | 8.49
3 | PelB-2610scFv-Im2-FLAG | 9.12
4 | PelB-M18scFv-Im2-FLAG | 249
